Substitutions are numbered along the chain they refer to.
Assays:
Conditions in all cases: tags: His-tag, E. coli; stem-loop
PAH N207S = target: T1, PAH N207S (Homo sapiens, UniProt P00439 P00439:1-452, N207S); assay: EMSA; also decreased affinity in quantified assay
T1 sequence: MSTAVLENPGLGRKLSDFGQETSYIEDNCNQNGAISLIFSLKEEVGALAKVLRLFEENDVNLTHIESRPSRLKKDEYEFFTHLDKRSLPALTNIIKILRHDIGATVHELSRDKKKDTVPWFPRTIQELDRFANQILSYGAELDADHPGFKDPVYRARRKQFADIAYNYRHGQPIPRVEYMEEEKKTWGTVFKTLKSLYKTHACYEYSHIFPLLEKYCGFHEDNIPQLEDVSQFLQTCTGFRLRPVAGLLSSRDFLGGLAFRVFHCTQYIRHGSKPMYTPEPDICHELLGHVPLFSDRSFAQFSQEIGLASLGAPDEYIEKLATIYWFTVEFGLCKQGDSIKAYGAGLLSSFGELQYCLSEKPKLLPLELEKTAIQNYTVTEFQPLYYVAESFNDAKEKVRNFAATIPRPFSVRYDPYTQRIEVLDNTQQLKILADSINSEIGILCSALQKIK
Excerpt: (§1) It was reasoned that supplementing lncRNAs might improve the catalytic activities of the PAH mutants, leading to reduced serum Phe concentrations and improved symptoms in patients with PKU. Scramble (Scr) and HULC mimics representing wild-type HULC nt. 181-201 and HULC A191G mutated sequences were designed for the following studies. 17 PAH mutants that were identified from patients with PKU and are known to affect the enzymatic activity of PAH (21, 22) were selected, and bacterially-expressed wild-type and mutant PAH (FIG. 10 and see FIG. S13A in Li et al. 2021) were collected. […] The denatured wild-type PAH proteins were included as a negative control.
(§2) RNA Electrophoretic Mobility Shift Assay (EMSA). The gel mobility shift assay was performed as previously described (42). Briefly, 500 ng recombinant His-tagged wild-type PAH or mutants were incubated with 0.035 μmol labeled probe in a RNA-protein binding buffer [(50 mM Tris-HCl 7.9, 10% glycerol, 100 mM KCl, 5 mM MgCl₂, 10 mM (3-ME, 0.1% NP40] for 30 min at 30° C. For cold RNA competition, 0.035 μmol radiolabeled RNA probes were first mixed with 7 μmol cold RNA competitors and then subjected to the gel shift assay.

PAH S349L = target: T2, PAH S349L (Homo sapiens, UniProt P00439 P00439:1-452, S349L); assay: EMSA; also decreased affinity in quantified assay
T2 sequence: T1 sequence with S207N, S349L
Excerpt: as §1, §2

PAH I318T = target: T3, PAH I318T (Homo sapiens, UniProt P00439 P00439:1-452, I318T); assay: EMSA; one of 13 of 17 binding mutants; affinity not decreased
T3 sequence: T1 sequence with S207N, I318T

PAH A300S = target: T4, PAH A300S (Homo sapiens, UniProt P00439 P00439:1-452, A300S); assay: as above
T4 sequence: T1 sequence with S207N, A300S

CAAAAUGCAUAUGUAUCUUUG (ssRNA) [HULC 181-201 mimic]: no binding (PAH N207S); no binding (PAH S349L); binds (PAH I318T). CAAAAUGCAUAUGUAUCUUUG (ssRNA) [HULC 181-201 mimic]: binds (PAH A300S).

From patent US20240342207, “MODIFIED NUCLEIC ACID COMPOSITIONS AND ASSOCIATED METHODS FOR TREATMENT OF PHENYLKETONURIA” (BOARD OF REGENTS, THE UNIVERSITY OF TEXAS SYSTEM, published 2024)
